“And” between values parts separate entries of the source, which are not always exact repeats. Equal entries are not always repeated.
B3: cytochrome c (Cc), recombinant, purified (natural protein)
chain: not shown
modifications: heme group

Columns and labels:
[1] = target: B3; experiment: ITC
[2] = target: T1, full-length nucleophosmin NPM(1-294), recombinant (UniProt P06748 1-294); experiment: ITC
[3] = target: T1, full-length nucleophosmin NPM(1-294), …; experiment: negative-stain electron microscopy with 3D reconstruction
[4] = target: NPM oligomerization domain core NPM(9-122) (UniProt P06748 9-122); experiment: ITC
[5] = target: NPM(123-294) construct without the oligomerization domain (UniProt P06748 123-294); experiment: ITC
[6] = target: the molecule itself; experiment: SDS-PAGE

T1 sequence (P06748 whole entry): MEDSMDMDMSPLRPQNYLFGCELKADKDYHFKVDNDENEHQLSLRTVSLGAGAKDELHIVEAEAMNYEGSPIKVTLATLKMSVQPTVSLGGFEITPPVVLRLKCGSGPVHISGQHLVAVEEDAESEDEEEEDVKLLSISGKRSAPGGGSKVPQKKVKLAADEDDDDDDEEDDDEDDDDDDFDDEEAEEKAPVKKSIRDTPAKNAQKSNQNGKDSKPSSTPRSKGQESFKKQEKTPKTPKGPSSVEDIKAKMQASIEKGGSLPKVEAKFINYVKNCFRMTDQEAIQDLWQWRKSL

B1: NPM(225-294) construct, C-terminal globular domain (domain or fragment)
chain: QESFKKQEKTPKTPKGPSSVEDIKAKMQASIEKGGSLPKVEAKFINYVKNCFRMTDQEAIQDLWQWRKSL
[1]
  Kd: ~200 µM

B2: p19ARF(1-37) domain (peptide)
peptide: MGRRFLVTVRIQRAGRPLQERVFLVKFVRSRRPRTAS
[2]
  Kd: 0.28 µM
  stoichiometry N: 5.6

## B3
[3]
  stoichiometry N: 1 Cc per NPM pentamer
[4]
  fold decrease of affinity (by KD) upon addition of 0.1 M KCl: 3 fold
  stoichiometry N: 2 Cc:NPM and 1 Cc:NPM
[5]
  Kd: 13 µM
[2]
  fold decrease of affinity (by KD) upon addition of 0.1 M KCl: 12 fold
  stoichiometry N: 1 Cc:NPM and 2 Cc:NPM

B4: NPM oligomerization domain NPM(1-130), His-tagged (domain or fragment)
chain: MEDSMDMDMSPLRPQNYLFGCELKADKDYHFKVDNDENEHQLSLRTVSLGAGAKDELHIVEAEAMNYEGSPIKVTLATLKMSVQPTVSLGGFEITPPVVLRLKCGSGPVHISGQHLVAVEEDAESEDEEE
[6]
  stoichiometry N: 5
